Target: the molecule itself

B1: SARS 3CL proteinase (protein)
chain: SGFRKMAFPSGKVEGCMVQVTCGTTTLNGLWLDDTVYCPRHVICTAEDMLNPNYEDLLIRKSNHSFLVQAGNVQLRVIGHSMQNCLLRLKVDTSNPKTPKYKFVRIQPGQTFSVLACYNGSPSGVYQCAMRPNHTIKGSFLNGSCGSVGFNIDYDCVSFCYMHHMELPTGVHAGTDLEGKFYGPFVDRQTAQAAGTDTTITLNVLAWLYAAVINGDRWFLNRFTTTLNDFNLVAMKYNYEPLTQDHVDILGPLSAQTGIAVLDMCAALKELLQNGMNGRTILGSTILEDEFTPFDVVRQCSGVTFQ
Work on B1 yielded a Kd of 14 µM.
